# Data published in PMC3646996 (Journal of molecular biology, 2013).
# Like-named read-outs stand apart in the source and are kept apart here.
# T1: OmpR (Escherichia coli, UniProt P0AA16 1-239)
# T1 sequence: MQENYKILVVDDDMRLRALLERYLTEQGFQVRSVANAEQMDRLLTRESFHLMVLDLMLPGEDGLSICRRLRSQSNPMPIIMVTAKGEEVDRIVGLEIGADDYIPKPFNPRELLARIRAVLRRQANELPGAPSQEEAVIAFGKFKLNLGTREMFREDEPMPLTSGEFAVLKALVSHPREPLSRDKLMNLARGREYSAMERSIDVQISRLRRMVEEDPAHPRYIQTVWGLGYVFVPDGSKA
# Legend:
# PhoB (Escherichia coli) [1] = target: PhoB (Escherichia coli) (UniProt P0AFJ5); settings: cited from earlier work
# PhoB (Escherichia coli) [2] = target: PhoB (Escherichia coli) (UniProt P0AFJ5); settings: cited from earlier work; remark: listed apart in the source
# OmpR = target: T1, OmpR; assay: ITC
# AUC [3] = target: the molecule itself; assay: AUC
# AUC [4] = target: the molecule itself; assay: AUC; remark: listed apart in the source
# Sequence of PhoB (P0AFJ5 whole entry): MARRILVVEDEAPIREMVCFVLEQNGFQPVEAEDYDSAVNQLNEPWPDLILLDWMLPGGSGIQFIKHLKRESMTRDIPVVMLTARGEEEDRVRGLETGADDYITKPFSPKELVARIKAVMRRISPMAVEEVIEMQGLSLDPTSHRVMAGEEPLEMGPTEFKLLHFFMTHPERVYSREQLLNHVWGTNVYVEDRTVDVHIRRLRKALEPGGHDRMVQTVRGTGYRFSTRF
# Sequence of PhoB (Escherichia coli) (P0AFJ5 whole entry): as above
molecule,measurement,setting,value
PhoB (from UniProt P0AFJ5),Kd,PhoB (Escherichia coli) [1],5.1 µM
same,Kd,PhoB (Escherichia coli) [2],380 µM
F1 (dsDNA) DNA 1: GCTTTACTTTTGGTTACATATTTCG DNA 2: CGAAATATGTAACCAAAAGTAAAGC,Kd,OmpR,2 µM
"OmpR (unphosphorylated, untreated) (natural protein, Escherichia coli, UniProt P0AA16 1-239, looked up) MQENYKILVVDDDMRLRALLERYLTEQGFQVRSVANAEQMDRLLTRESFHLMVLDLMLPGEDGLSICRRLRSQSNPMPIIMVTAKGEEVDRIVGLEIGADDYIPKPFNPRELLARIRAVLRRQANELPGAPSQEEAVIAFGKFKLNLGTREMFREDEPMPLTSGEFAVLKALVSHPREPLSRDKLMNLARGREYSAMERSIDVQISRLRRMVEEDPAHPRYIQTVWGLGYVFVPDGSKA",Kd,AUC [3],1100 µM
same,stoichiometry N,AUC [3],2
"BeF3−-treated OmpR (natural protein, Escherichia coli, UniProt P0AA16 1-239, looked up, BeF3− (noncovalent small molecule phosphoryl analog); residue not given) MQENYKILVVDDDMRLRALLERYLTEQGFQVRSVANAEQMDRLLTRESFHLMVLDLMLPGEDGLSICRRLRSQSNPMPIIMVTAKGEEVDRIVGLEIGADDYIPKPFNPRELLARIRAVLRRQANELPGAPSQEEAVIAFGKFKLNLGTREMFREDEPMPLTSGEFAVLKALVSHPREPLSRDKLMNLARGREYSAMERSIDVQISRLRRMVEEDPAHPRYIQTVWGLGYVFVPDGSKA",Kd,AUC [4],7 µM
same,stoichiometry N,AUC [4],2
